This is an account of results in US20100297124A1 (published 2010).

The target in assay [1] is T1, neuropilin 1 (NRP1) on human umbilical vein endothelial cells (HUVEC) (human, UniProt O14786 22-923).
T1 construct: whole, on cells; also called cell-surface NRP1
Nature of the assay: flow cytometry, Sema3A/Fc (2 µg/ml) on HUVEC, anti-human IgG Fc detection. How it is done:
(§1) The results shown in FIGS. 8-12 indicate that oligo(G) can promote the internalization of NRP1 by bridging NRP1 to the scavenger SREC-I receptor on endothelial cells. This should disrupt the binding of the NRP1 ligands Sema3A and VEGF165 to endothelial cells due to receptor internalization. To verify this hypothesis, HUVEC were incubated at 37° C. for 1 hour with or without phosphorothioate G18 (sG18) (4 or 16 μg/ml). Subsequently, the cells were washed and binding of Sema3A/Fc and biotin-labeled VEGF165 tested after incubation at 4° C. for 1 hour. Bound Sema3A/Fc was detected by flow cytometry after staining with FITC-conjugated goat anti-human IgG-Fc; bound VEGF165 was detected by flow cytometry after staining with avidin-FITC.
(In flow cytometry, cells or beads pass a laser one at a time.)

Assay [2] addresses T1, neuropilin 1 (NRP1) on human umbilical …. The assay is described as follows: flow cytometry, biotinylated VEGF165 (100 ng/ml) on HUVEC, avidin-FITC detection. As for the experimental part:
as §1

T1 sequence (O14786 22-923): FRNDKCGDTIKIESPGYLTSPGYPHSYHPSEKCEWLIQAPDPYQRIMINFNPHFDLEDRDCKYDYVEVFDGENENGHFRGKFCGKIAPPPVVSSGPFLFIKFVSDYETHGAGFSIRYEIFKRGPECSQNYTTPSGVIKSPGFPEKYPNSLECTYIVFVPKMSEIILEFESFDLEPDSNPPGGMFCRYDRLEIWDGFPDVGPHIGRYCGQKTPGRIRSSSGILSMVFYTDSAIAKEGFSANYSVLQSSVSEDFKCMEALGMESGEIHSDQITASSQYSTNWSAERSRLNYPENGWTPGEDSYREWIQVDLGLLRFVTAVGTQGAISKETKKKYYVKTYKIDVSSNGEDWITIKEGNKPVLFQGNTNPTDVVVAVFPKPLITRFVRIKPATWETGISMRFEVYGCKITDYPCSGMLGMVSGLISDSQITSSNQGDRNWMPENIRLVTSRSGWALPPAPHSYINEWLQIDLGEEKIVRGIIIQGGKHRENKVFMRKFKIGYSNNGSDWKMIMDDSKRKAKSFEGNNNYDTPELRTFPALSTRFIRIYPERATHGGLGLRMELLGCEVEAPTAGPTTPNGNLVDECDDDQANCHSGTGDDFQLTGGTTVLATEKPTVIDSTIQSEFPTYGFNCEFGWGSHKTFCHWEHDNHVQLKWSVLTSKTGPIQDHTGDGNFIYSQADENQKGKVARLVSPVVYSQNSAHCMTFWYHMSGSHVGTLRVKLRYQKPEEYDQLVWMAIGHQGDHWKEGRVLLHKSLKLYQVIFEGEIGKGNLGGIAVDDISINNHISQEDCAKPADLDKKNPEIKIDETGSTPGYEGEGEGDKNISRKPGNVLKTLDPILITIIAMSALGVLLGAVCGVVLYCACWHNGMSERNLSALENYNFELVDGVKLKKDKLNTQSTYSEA

B1: human Sema3A/Fc (Fc fusion, UniProt Q14563 26-771, looked up)
chain: KNNVPRLKLSYKEMLESNNVITFNGLANSSSYHTFLLDEERSRLYVGAKDHIFSFDLVNIKDFQKIVWPVSYTRRDECKWAGKDILKECANFIKVLKAYNQTHLYACGTGAFHPICTYIEIGHHPEDNIFKLENSHFENGRGKSPYDPKLLTASLLIDGELYSGTAADFMGRDFAIFRTLGHHHPIRTEQHDSRWLNDPKFISAHLISESDNPEDDKVYFFFRENAIDGEHSGKATHARIGQICKNDFGGHRSLVNKWTTFLKARLICSVPGPNGIDTHFDELQDVFLMNFKDPKNPVVYGVFTTSSNIFKGSAVCMYSMSDVRRVFLGPYAHRDGPNYQWVPYQGRVPYPRPGTCPSKTFGGFDSTKDLPDDVITFARSHPAMYNPVFPMNNRPIVIKTDVNYQFTQIVVDRVDAEDGQYDVMFIGTDVGTVLKVVSIPKETWYDLEEVLLEEMTVFREPTAISAMELSTKQQQLYIGSTAGVAQLPLHRCDIYGKACAECCLARDPYCAWDGSACSRYFPTAKRRTRRQDIRNGDPLTHCSDLHHDNHHGHSPEERIIYGVENSSTFLECSPKSQRALVYWQFQRRNEERKEEIRVDDHIIRTDQGLLLRSLQQKDSGNYLCHAVEHGFIQTLLKVTLEVIDTEHLEELLHKDDDGDGSKTKEMSNSMTPSQKVWYRDFMQLINHPNLNTMDEFCEQVWKRDRKQRRQRPGHTPGNSNKWKHLQENKKGRNRRTHEFERAPRSV
notes: Commercial reagent (R&D Systems); not shown: Fc portion
Regarding B1, the binding result in assay [1] is reported as “binds”.

B2: Recombinant human VEGF165 (biotinylated) (ligand, UniProt P15692-4 27-191, looked up)
chain: APMAEGGGQNHHEVVKFMDVYQRSYCHPIETLVDIFQEYPDEIEYIFKPSCVPLMRCGGCCNDEGLECVPTEESNITMQIMRIKPHQGQHIGEMSFLQHNKCECRPKKDRARQENPCGPCSERRKHLFVQDPQTCKCSCKNTDSRCKARQLELNERTCRCDKPRR
modifications: biotinylated (sites not given)
notes: Commercial reagent (R&D Systems); also called biotin-VEGF165; biotin-labeled VEGF165
In the case of B2, in assay [2], the binding result is given as “binds”.
